Consider 10 molecules from patent publication US20200347144A1 (SHANGHAI HYAMAB BIOTECH, published 2020).

Positions count from the first letter of the chain named.

T1: mouse 4-1BB protein (extracellular domain) (mouse, UniProt P20334 24-187)
T1 construct: extracellular domain; also called mouse 4-1BB-his; mouse 4-1BB-hFc protein
T1 sequence (looked up): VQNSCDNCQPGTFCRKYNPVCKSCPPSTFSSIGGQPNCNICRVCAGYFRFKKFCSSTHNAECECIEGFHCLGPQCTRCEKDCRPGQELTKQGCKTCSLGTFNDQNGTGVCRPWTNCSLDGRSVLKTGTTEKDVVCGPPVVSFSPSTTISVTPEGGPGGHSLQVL

B1: 172E3E3 (antibody, V domains shown)
VH: QVQLQESGPGLVKPSGTLSLTCAVSGGSISSSNWWSWVRQPPGKGLEWIGEIYHSGSTNYNPSLKSRVTISVDKSKNQLSLNLSSVTAADTAVYYCARQGGVAGTLYWYFDLWGRGTLVTVSS
VL: DIVMTQSPLSLPVTPGEPASISCRSSQGLLHSNGYNYLDWYLQKPGQSPQLLIYLGSNRASGVPDRFIGSGSGTDFTLKIRRVEAEDVGVYYCMQVLQTPWTFGQGTKVEIK
B2: 170D7F2 (antibody, V domains shown)
VH: QVQLVQSGAEVKKPGASVKVSCKASGYTFTSYDINWVRQATGQGLEWMGWMNPNSGNTGYAQKFQGRVTMTRNTSISTAYMELSSLRSEDTAVYYCARETGPFDYWGQGTLVTVSS
VL: DIQMTQSPSSLSASVGDRVTITCRASQRINNYLNWYQQKPGKAPKLLIYGASSLQSGVPSRFSGSGSGTDFTLTISSLQPEDFATYYCQQSYSTPFTFGPGTKVDIK
B3: 118F3A2 (antibody, V domains shown)
VH: QVQLQQWGAGLLKPSETLSLTCGVYGGSFSTNYWSWIRQSPGKGLEWIGEINHSGNTEYNPSLKSRLTISIDTSKNQFSLKLTSVTAADTAVYYCARMGYHSPSFDFWGQGVLVTVSS
VL: KIVMTQSPATLSVSPGERATLPCRVSQGIGSNLAWYQQKPGQAPRLLIYGASTRATGVPARFSGSGSGSEFTLTISSLQSEDLALYYCQQYNNWPLTFGGGTKVEIK
B4: 289B6G6 (antibody, V domains shown)
VH: QVQLQESGPGLVRPSETLSLTCAVSGYSISSGYYWGWIRQPPGKGLEWIGSIFHSGNTYYNPSLKSRVIVSGDTSKNQFSLKLSSVTAADTAVYYCTRESSGFNVFDIWGQGTMVTVSS
VL: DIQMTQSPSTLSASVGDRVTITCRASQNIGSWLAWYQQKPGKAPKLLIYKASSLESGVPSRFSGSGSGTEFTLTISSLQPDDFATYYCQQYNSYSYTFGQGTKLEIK
B5: 182A5B3 (antibody, V domains shown)
VH: B2 VH with A61V
VL: not shown
B6: 23G3B8 (antibody, V domains shown)
VH: QVQLQESGPGLVKPSETLSLTCAVSAYSISSGYYWGWIRQPPGKGLEWIGSIFHSGSNYYNPSLKSRVTISVDPSKNQFSLKLSSVTVADTAVYYCARESSGYNCFDYWGQGTLVTVSS
VL: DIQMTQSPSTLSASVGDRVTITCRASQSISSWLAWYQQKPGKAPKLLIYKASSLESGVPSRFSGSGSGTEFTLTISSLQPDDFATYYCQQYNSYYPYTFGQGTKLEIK
B7: 119B6G5 (antibody, V domains shown)
VH: EVQLLESGGGLVQPGGSLRLSCAASGFTFSNYAMSWVRQGPGKGLEWVSTIIGSGDSTYYTDSVKGRFTISRDNSKNTLFLQMNSLRAEDTAVYYCARDKSGWYYFDYWGQGTLVTVSS
VL: DIQMTQSPSTLSASVGDRVTITCRASQSISNWLAWYQQKPGKAPKLLIYKASSLESGVPSRFSGSGSGTEFTLTISSLQPDDFATYYCQQYNDYFPITFGQGTRLEIK
B8: 258F5A8 (antibody, V domains shown)
VH: QVQLVESGGGVVQPGRSLRLSCAASGFTFSSYGMHWVRQAPGKGLEWVAVIWYDGSNKYYADSVKGRFNISRDNSKNTLYLQMNSLRAEDTAVYYCARGPYLYSSGWYDYYYYGMDVWGQGTTVTVSS
VL: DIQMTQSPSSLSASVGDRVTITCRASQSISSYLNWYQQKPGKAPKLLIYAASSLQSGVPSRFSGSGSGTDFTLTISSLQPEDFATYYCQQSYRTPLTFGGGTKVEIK
B9: 259G10E11 (antibody, V domains shown)
VH: B8 VH with N69T
VL: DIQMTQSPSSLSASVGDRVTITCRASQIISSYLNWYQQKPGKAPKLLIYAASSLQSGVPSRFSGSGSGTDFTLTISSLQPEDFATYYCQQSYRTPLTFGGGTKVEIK
B10: 263A11E3 (antibody, V domains shown)
VH: QVQLQESGPGLVKPSETLSLTCAVSGYSISSGYYWGWIRQPPGKGLEWIGSIYHSGSTSYNPSLRSRVTISVDTSKNQFSLKLSSVTAADTAVYYCARDAGGFDYWGQGTLVTVSS
VL: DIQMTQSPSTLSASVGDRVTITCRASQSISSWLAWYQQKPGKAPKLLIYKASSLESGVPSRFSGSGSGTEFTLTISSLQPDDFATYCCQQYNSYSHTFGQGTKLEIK

The term EC50 (read off the curve) denotes the concentration that produces a half-maximal response.

In one experiment the target is T1, mouse 4-1BB protein (extracellular …). In words: ELISA, coated mouse 4-1BB; Ab 10 ug/ml. The method, then: (§1) The purified immunogen A (4-1BB-hFc), monkey 4-1BB-his, and mouse 4-1BB-his obtained in Example 1 [for the preparation method, see step 1 of Example 1, preparation of immunogen A], of which the extracellular domain of monkey-derived 4-1BB protein (purchased from ACRO biosystems), the extracellular domain of mouse 4-1BB protein (purchased from sino biological) or other immune detection point proteins respectively were diluted with PBS to a final concentration of 1.0 μg/mL, then added with […] per well to 96-well ELISA plate. It was sealed with plastic film and incubated at 4° C. overnight. The next day, the plate was washed twice with the plate-washing solution [PBS containing 0.01% (v/v) Tween20] and blocking solution [PBS containing 0.01% (v/v) Tween 20 and 1% (v/v) BSA] was added and blocked at room temperature for 2 hours. The blocking solution was discarded and 100 μl of the purified 4-1BB antibody obtained in Example 2 was added per well. After incubated at 37° C. for 2 hours, the plate was washed 3 times with a plate-washing solution [PBS containing 0.01% (v/v) Tween20]. A secondary antibody (purchased from Sigma) labeled with HRP (horseradish peroxidase) was added, and after incubated at 37° C. for 2 hours, the plate was washed 3 times with a plate-washing solution [PBS containing 0.01% (v/v) Tween20]. 100 μl of TMB substrate was added per well. After incubated for 30 minutes at room temperature, 100 μl of stop buffer (1.0N HCl) was added per well. The A450 nm values were read using an ELISA plate reader (SpectraMax 384plus, Molecular Device).
For orientation: ELISA stands for enzyme-linked immunosorbent assay.
B1 had an OD450 nm of 0.3 OD450 nm.

With B2, the OD450 nm came out at 0.27 OD450 nm.

B3 showed an OD450 nm of 0.31 OD450 nm.

Another experiment has the same target. In words: ELISA, coated mouse 4-1BB; Ab 0.016 ug/ml. The protocol:
as §1
B1 came in with an OD450 nm of 0.05 OD450 nm.

For the molecule B2, the OD450 nm amounted to 0.18 OD450 nm.

Consider B3, for which the OD450 nm came out at 0.09 OD450 nm.

Another experiment has the same target. The experiment in a line: ELISA: mouse 4-1BB protein coated at 1.0 µg/mL (target by Table 10; the legend paragraph 119 says monkey 4-1BB-hFc), antibody titrated, HRP secondary antibody, OD450. The protocol: as §1
As for B1, the binding result is “no binding (tested: 10 µg/ml)”.

Consider B2, for which the binding result is listed as “no binding (tested: 10 µg/ml)”.

On to B3, for which the binding result is on record as “no binding (tested: 10 µg/ml)”.

The next experiment has the same target. The experiment in a line: ELISA, coated mouse 4-1BB; Ab 0.4 ug/ml. The protocol:
as §1
With B1, the OD450 nm was found to be 0.06 OD450 nm.

B2: the OD450 nm is 0.12 OD450 nm.

B3 displayed an OD450 nm of 0.06 OD450 nm.

For another experiment, the target named is T2, monkey 4-1BB on CHOK1 cells (monkey).
T2 construct: whole, on cells; also called CHOK1-c4-1BB
The experiment in a line: FACS on CHOK1-c4-1BB cells, Alexa 488 secondary antibody, average fluorescence intensity. The text has this:
The pIRES plasmid carrying the full-length gene of monkey-derived […] (the preparation method is the same as the preparation method of the pCpC vector carrying the human-derived IgG Fc fragment (hFc) in “Preparation of immunogen A” of the step (1) in Example 1, in which the database accession number of the amino acid sequence of the extracellular region of monkey 4-1BB protein (Phe19-Thr239) is G7PSE7) was transfected into CHOK1 cell line to obtain CHOK1 stable transfected cell line containing monkey 4-1BB (herein referred to as CHOK1-c4-1BB stable cell line). The CHOK1-h4-1BB stable cell line and the CHOK1-c4-1BB stable cell line were expanded and cultivated to 90% confluence in T-75 cell culture flasks. The medium was exhausted, and washed twice with HBSS buffer (Hanks Balanced Salt Solution, purchased from Invitrogen), and then the cells were treated and collected with enzyme-free cell dissociation solution (Versene solution, purchased from Life Technology). The cells were washed twice with HBSS buffer, and after cell counting, the cells were diluted with HBSS buffer to 2×10⁶ cells per ml, and 1% goat serum blocking solution was added, the percentage being the mass percentage. It was incubated on ice for 30 minutes, and then washed twice with HBSS buffer by centrifugation. The collected cells were suspended in FACS buffer (HBSS containing 1% BSA, the percentage was the mass percentage) to 2×10⁶ cells/mL, and 100 μl per well was added to a 96-well FACS reaction plate. The purified 4-1BB antibody test sample obtained in Example 2 was added, 100 microliters per well and incubated on ice for 2 hours. […] It was washed three times with FACS buffer by centrifugation, and 100 μl of fixative [4% (v/v) paraformaldehyde] per well was added to suspend cells, and washed twice with FACS buffer after 10 minutes by centrifugation. The cells were suspended with 100 microliters of FACS buffer, and the results were detected and analyzed with FACS (FACS Calibur, purchased from BD).
Turning to B4, the “EC50 (read off the curve)” value was approximately 0.2 µg/mL.

Take B5: the “EC50 (read off the curve)” value is approximately 0.4 µg/mL.

Turning to B6, the “EC50 (read off the curve)” value is approximately 0.2 µg/mL.

The next experiment addresses T3, monkey 4-1BB-his protein (monkey).
T3 construct: extracellular domain; Bought protein; also called extracellular domain of monkey-derived 4-1BB protein
In words: ELISA, coated monkey 4-1BB-his; Ab 2 ug/ml. The protocol: as §1
B7 returned an OD450 nm of 2.46 OD450 nm.

B8: the OD450 nm turned out to be 1.78 OD450 nm.

Take B9: the OD450 nm was 1.51 OD450 nm.

For the molecule B10, the OD450 nm stood at 0.39 OD450 nm.

The target in another experiment is T3, monkey 4-1BB-his protein. In words: ELISA, coated monkey 4-1BB-his; Ab 10 ug/ml. The method, then:
as §1
B7 showed an OD450 nm of 2.48 OD450 nm.

Molecule B8 showed an OD450 nm of 1.98 OD450 nm.

B9 showed an OD450 nm of 1.83 OD450 nm.

Turning to B10, the OD450 nm amounted to 0.87 OD450 nm.

In the next experiment the target is T3, monkey 4-1BB-his protein. The experiment in a line: ELISA, coated monkey 4-1BB-his; Ab 0.08 ug/ml. The protocol:
as §1
The molecule B7 yielded an OD450 nm of 2.15 OD450 nm.

Consider B8, for which the OD450 nm worked out at 0.55 OD450 nm.

Regarding B9, the OD450 nm worked out at 0.46 OD450 nm.

For the molecule B10, the OD450 nm came out at 0.08 OD450 nm.

The target of a further experiment is T3, monkey 4-1BB-his protein. The experiment in a line: ELISA: monkey 4-1BB-his coated at 1.0 µg/mL, antibody titrated, HRP secondary antibody, OD450. The protocol: as §1
On to B7, for which the concentration for a half-maximal effect (EC50 (read off the curve)) is approximately 0.03 µg/mL.

The next experiment addresses T1, mouse 4-1BB protein (extracellular …). In words: ELISA, coated mouse 4-1BB; Ab 2 ug/ml. The protocol:
as §1
Consider B1, for which the OD450 nm came to 0.12 OD450 nm.

On to B2, for which the OD450 nm is 0.11 OD450 nm.

In the case of B3, the OD450 nm was determined as 0.12 OD450 nm.

In a further experiment the target is T3, monkey 4-1BB-his protein. In words: ELISA, coated monkey 4-1BB-his; Ab 0.0006 ug/ml. The method, then:
as §1
B7 gave an OD450 nm of 0.11 OD450 nm.

With B8, the OD450 nm came out at 0.07 OD450 nm.

The molecule B9 yielded an OD450 nm of 0.07 OD450 nm.

With B10, the OD450 nm was determined as 0.07 OD450 nm.

The next experiment has as its target T1, mouse 4-1BB protein (extracellular …). In words: ELISA, coated mouse 4-1BB; Ab 0.08 ug/ml. The method, then: as §1
Regarding B1, the OD450 nm was determined as 0.05 OD450 nm.

B2: the OD450 nm was 0.1 OD450 nm.

In the case of B3, the OD450 nm was determined as 0.12 OD450 nm.

The next experiment has the same target. The experiment in a line: ELISA, coated mouse 4-1BB; Ab 0.0032 ug/ml. The protocol: as §1
In turn, B1 returned an OD450 nm of 0.05 OD450 nm.

With B2, the OD450 nm amounted to 0.14 OD450 nm.

In turn, B3 showed an OD450 nm of 0.11 OD450 nm.

The target in another experiment is T3, monkey 4-1BB-his protein. The experiment in a line: ELISA, coated monkey 4-1BB-his; Ab 0.0001 ug/ml. The method, then:
as §1
In turn, B7 had an OD450 nm of 0.08 OD450 nm.

The molecule B8 yielded an OD450 nm of 0.07 OD450 nm.

As to B9, the OD450 nm was found to be 0.07 OD450 nm.

B10: the OD450 nm was found to be 0.07 OD450 nm.
